{"source": "the supplement of paper PMC9112550", "about": "“Optimization of the antimicrobial peptide Bac7 by deep mutational scanning” (BMC Biology, 2022);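 further: peptides expressed intracellularly from a pBAD plasmid library in pooled LB shake-flask culture, induced with 0.3% L-arabinose, DNA abundance read by NGS, three biological replicates, DESeq2 with apeglm shrinkage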", "data": [{"test_system": "Escherichia coli TOP10", "experiment": "shrunken log2 fold change of peptide-encoding DNA abundance (4.5 h post-induction vs induction); higher = less antimicrobial activity (less host growth inhibition)", "conditions": "time post-induction: 4.5 h; library: site-saturation at positions 5, 18, 19, 20", "values": [{"sequence": "RRIRRRPPRLPRPRPRPVMEPRP", "shrunken log2 fold change": 0.305}, {"sequence": "RRIRARPPRLPRPRPRPKRVPRP", "shrunken log2 fold change": 0.455}, {"sequence": "RRIRPRPPRLPRPRPRPDMIPRP", "shrunken log2 fold change": 0.249}, {"sequence": "RRIRDRPPRLPRPRPRPGGPPRP", "shrunken log2 fold change": 0.247}, {"sequence": "RRIRHRPPRLPRPRPRPRNWPRP", "shrunken log2 fold change": 0.0465}, {"sequence": "RRIRARPPRLPRPRPRPTRCPRP", "shrunken log2 fold change": 1.1}, {"sequence": "RRIRKRPPRLPRPRPRPVEEPRP", "shrunken log2 fold change": 0.695}, {"sequence": "RRIRLRPPRLPRPRPRPAWHPRP", "shrunken log2 fold change": 0.183}, {"sequence": "RRIRVRPPRLPRPRPRPCIKPRP", "shrunken log2 fold change": -0.592}, {"sequence": "RRIRHRPPRLPRPRPRPCSTPRP", "shrunken log2 fold change": -0.337}, {"sequence": "RRIRVRPPRLPRPRPRPPMWPRP", "shrunken log2 fold change": 0.303}, {"sequence": "RRIRMRPPRLPRPRPRPDMPPRP", "shrunken log2 fold change": -0.0178}, {"sequence": "RRIRGRPPRLPRPRPRPCRIPRP", "shrunken log2 fold change": -0.0785}, {"sequence": "RRIRMRPPRLPRPRPRPNYKPRP", "shrunken log2 fold change": -0.504}, {"sequence": "RRIRQRPPRLPRPRPRPMALPRP", "shrunken log2 fold change": 0.00414}, {"sequence": "RRIRVRPPRLPRPRPRPSDWPRP", "shrunken log2 fold change": -0.102}, {"sequence": "RRIRLRPPRLPRPRPRPVRWPRP", "shrunken log2 fold change": 0.928}, {"sequence": "RRIRIRPPRLPRPRPRPFGTPRP", "shrunken log2 fold change": -0.109}, {"sequence": "RRIRFRPPRLPRPRPRPGPMPRP", "shrunken log2 fold change": 0.104}, {"sequence": "RRIRCRPPRLPRPRPRPNSIPRP", "shrunken log2 fold change": -0.314}, {"sequence": "RRIRMRPPRLPRPRPRPVGWPRP", "shrunken log2 fold change": 1.37}, {"sequence": "RRIRHRPPRLPRPRPRPKHSPRP", "shrunken log2 fold change": -0.347}, {"sequence": "RRIRPRPPRLPRPRPRPWQGPRP", "shrunken log2 fold change": -0.00211}, {"sequence": "RRIRPRPPRLPRPRPRPEPEPRP", "shrunken log2 fold change": 0.433}, {"sequence": "RRIRKRPPRLPRPRPRPCQNPRP", "shrunken log2 fold change": 0.412}, {"sequence": "RRIRIRPPRLPRPRPRPEMQPRP", "shrunken log2 fold change": 0.128}, {"sequence": "RRIRFRPPRLPRPRPRPSSAPRP", "shrunken log2 fold change": -0.0032}, {"sequence": "RRIRSRPPRLPRPRPRPLTCPRP", "shrunken log2 fold change": -0.114}, {"sequence": "RRIRHRPPRLPRPRPRPHKWPRP", "shrunken log2 fold change": -0.0897}, {"sequence": "RRIRTRPPRLPRPRPRPHLWPRP", "shrunken log2 fold change": 0.0316}, {"sequence": "RRIRYRPPRLPRPRPRPTLRPRP", "shrunken log2 fold change": -0.484}, {"sequence": "RRIRMRPPRLPRPRPRPEHFPRP", "shrunken log2 fold change": 0.0315}, {"sequence": "RRIRKRPPRLPRPRPRPVWKPRP", "shrunken log2 fold change": 0.138}, {"sequence": "RRIRCRPPRLPRPRPRPSMIPRP", "shrunken log2 fold change": -0.892}, {"sequence": "RRIRKRPPRLPRPRPRPHMRPRP", "shrunken log2 fold change": 0.0568}, {"sequence": "RRIRKRPPRLPRPRPRPRRDPRP", "shrunken log2 fold change": 0.491}, {"sequence": "RRIRMRPPRLPRPRPRPSRFPRP", "shrunken log2 fold change": 0.253}, {"sequence": "RRIRHRPPRLPRPRPRPPQCPRP", "shrunken log2 fold change": 0.178}, {"sequence": "RRIRQRPPRLPRPRPRPGMTPRP", "shrunken log2 fold change": 0.00903}, {"sequence": "RRIRDRPPRLPRPRPRPLMKPRP", "shrunken log2 fold change": -0.19}, {"sequence": "RRIRRRPPRLPRPRPRPLCMPRP", "shrunken log2 fold change": -0.126}, {"sequence": "RRIRSRPPRLPRPRPRPIRTPRP", "shrunken log2 fold change": -0.207}, {"sequence": "RRIRPRPPRLPRPRPRPYSNPRP", "shrunken log2 fold change": -1.31}, {"sequence": "RRIRGRPPRLPRPRPRPGTPPRP", "shrunken log2 fold change": 0.919}, {"sequence": "RRIRKRPPRLPRPRPRPAEWPRP", "shrunken log2 fold change": 0.0965}, {"sequence": "RRIRWRPPRLPRPRPRPWVGPRP", "shrunken log2 fold change": 0.207}, {"sequence": "RRIRYRPPRLPRPRPRPCMRPRP", "shrunken log2 fold change": -0.091}, {"sequence": "RRIRYRPPRLPRPRPRPSQAPRP", "shrunken log2 fold change": -0.0185}, {"sequence": "RRIRMRPPRLPRPRPRPVDCPRP", "shrunken log2 fold change": 0.029}, {"sequence": "RRIRPRPPRLPRPRPRPHREPRP", "shrunken log2 fold change": -0.176}, {"sequence": "RRIRHRPPRLPRPRPRPNNQPRP", "shrunken log2 fold change": -0.465}, {"sequence": "RRIRIRPPRLPRPRPRPENTPRP", "shrunken log2 fold change": -0.397}, {"sequence": "RRIRCRPPRLPRPRPRPTSGPRP", "shrunken log2 fold change": 0.285}, {"sequence": "RRIRLRPPRLPRPRPRPGMEPRP", "shrunken log2 fold change": 0.251}, {"sequence": "RRIRRRPPRLPRPRPRPIEGPRP", "shrunken log2 fold change": 0.0101}, {"sequence": "RRIRRRPPRLPRPRPRPYYLPRP", "shrunken log2 fold change": -0.308}, {"sequence": "RRIRVRPPRLPRPRPRPSTMPRP", "shrunken log2 fold change": -0.213}, {"sequence": "RRIRHRPPRLPRPRPRPAIHPRP", "shrunken log2 fold change": -0.303}, {"sequence": "RRIRTRPPRLPRPRPRPRNTPRP", "shrunken log2 fold change": -0.209}, {"sequence": "RRIRGRPPRLPRPRPRPHATPRP", "shrunken log2 fold change": 1.35}, {"sequence": "RRIRGRPPRLPRPRPRPHQAPRP", "shrunken log2 fold change": 0.354}, {"sequence": "RRIRWRPPRLPRPRPRPLEGPRP", "shrunken log2 fold change": -0.158}, {"sequence": "RRIRIRPPRLPRPRPRPGRHPRP", "shrunken log2 fold change": 0.0231}, {"sequence": "RRIRARPPRLPRPRPRPMCKPRP", "shrunken log2 fold change": 0.0809}, {"sequence": "RRIRDRPPRLPRPRPRPFSKPRP", "shrunken log2 fold change": -0.488}, {"sequence": "RRIRTRPPRLPRPRPRPMIHPRP", "shrunken log2 fold change": -0.609}, {"sequence": "RRIRLRPPRLPRPRPRPWMPPRP", "shrunken log2 fold change": -0.0741}, {"sequence": "RRIRARPPRLPRPRPRPLAFPRP", "shrunken log2 fold change": 0.703}, {"sequence": "RRIRGRPPRLPRPRPRPHIHPRP", "shrunken log2 fold change": -0.0259}, {"sequence": "RRIRGRPPRLPRPRPRPGAVPRP", "shrunken log2 fold change": 0.961}, {"sequence": "RRIRPRPPRLPRPRPRPMVSPRP", "shrunken log2 fold change": -0.0725}, {"sequence": "RRIRARPPRLPRPRPRPYVWPRP", "shrunken log2 fold change": 0.053}, {"sequence": "RRIRTRPPRLPRPRPRPFHNPRP", "shrunken log2 fold change": -0.31}, {"sequence": "RRIRRRPPRLPRPRPRPHQKPRP", "shrunken log2 fold change": 0.474}, {"sequence": "RRIRMRPPRLPRPRPRPGHIPRP", "shrunken log2 fold change": 0.0817}]}]}
